Assay results from patent US20260001928A1 (CORTERIA PHARMACEUTICALS, priority 2022, published 2026).
*1 amine or outer side, *2 acyl side, *3 side chain or, on linkers, in order; H or OH if unused. Primed or numbered codes have the meaning given here. Where no end group is shown, it is not given here. Side-chain parts run from the residue outwards. [ ]: non-standard residue; d: D form. The star is where a group is joined. Thp′ = 4-amino-tetrahydro-2H-pyran-4-yl-acetic acid, O=C(CC1(N[*:1])CCOCC1)[*:2]; ThP = 4-amino-tetrahydro-2H-pyran-4-yl-acetic acid, O=C(CC1(N[*:1])CCOCC1)[*:2]; C18 diacid = O=C(O)CCCCCCCCCCCCCCCCC(=O)*; C16 diacid = O=C(O)CCCCCCCCCCCCCCC(=O)*; γGlu = O=C(O)[C@H](CCC(=O)[*:2])N[*:1]; NMeI = CC[C@H](C)[C@H](NC)C(=O)O; Ac6c = NC1(C(=O)O)CCCCC1; Api = NC1(C(=O)O)CCNCC1; Aib = CC(C)(N)C(=O)O

T1: CRF1R receptor (UniProt P34998 24-415, limits assumed)
T1 sequence (looked up): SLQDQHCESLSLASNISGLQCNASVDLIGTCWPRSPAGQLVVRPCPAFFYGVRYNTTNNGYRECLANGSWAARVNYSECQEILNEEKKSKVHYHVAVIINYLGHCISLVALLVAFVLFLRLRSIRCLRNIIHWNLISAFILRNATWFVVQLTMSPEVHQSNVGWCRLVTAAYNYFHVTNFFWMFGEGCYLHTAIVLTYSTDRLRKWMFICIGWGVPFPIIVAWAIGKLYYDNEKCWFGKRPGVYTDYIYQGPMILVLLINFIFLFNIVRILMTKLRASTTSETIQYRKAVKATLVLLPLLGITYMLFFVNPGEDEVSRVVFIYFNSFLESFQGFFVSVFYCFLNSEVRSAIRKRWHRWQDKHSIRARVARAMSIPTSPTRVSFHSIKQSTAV

B1: SEQ ID NO 24 (peptide)
peptide: [NMeI]VLSLD[dV]PIKLK([γGlu-C18 diacid])QILLKQERQKKQREQAEKNAQILEQV-NH2
modifications: N-terminus assumed
SMILES: CC[C@H](C)[C@H](NC)C(=O)N[C@H](C(=O)N[C@@H](CC(C)C)C(=O)N[C@@H](CO)C(=O)N[C@@H](CC(C)C)C(=O)N[C@@H](CC(=O)O)C(=O)N[C@@H](C(=O)N1CCC[C@H]1C(=O)N[C@H](C(=O)N[C@@H](CCCCN)C(=O)N[C@@H](CC(C)C)C(=O)N[C@@H](CCCCNC(=O)CC[C@H](NC(=O)CCCCCCCCCCCCCCCCC(=O)O)C(=O)O)C(=O)N[C@@H](CCC(N)=O)C(=O)N[C@H](C(=O)N[C@@H](CC(C)C)C(=O)N[C@@H](CC(C)C)C(=O)N[C@@H](CCCCN)C(=O)N[C@@H](CCC(N)=O)C(=O)N[C@@H](CCC(=O)O)C(=O)N[C@@H](CCCNC(=N)N)C(=O)N[C@@H](CCC(N)=O)C(=O)N[C@@H](CCCCN)C(=O)N[C@@H](CCCCN)C(=O)N[C@@H](CCC(N)=O)C(=O)N[C@@H](CCCNC(=N)N)C(=O)N[C@@H](CCC(=O)O)C(=O)N[C@@H](CCC(N)=O)C(=O)N[C@@H](C)C(=O)N[C@@H](CCC(=O)O)C(=O)N[C@@H](CCCCN)C(=O)N[C@@H](CC(N)=O)C(=O)N[C@@H](C)C(=O)N[C@@H](CCC(N)=O)C(=O)N[C@H](C(=O)N[C@@H](CC(C)C)C(=O)N[C@@H](CCC(=O)O)C(=O)N[C@@H](CCC(N)=O)C(=O)N[C@H](C(N)=O)C(C)C)[C@@H](C)CC)[C@@H](C)CC)[C@@H](C)CC)C(C)C)C(C)C
B2: SEQ ID NO 133 (peptide)
peptide: Ac-IVLSLD[dV]PIKLK([γGlu-C18 diacid])KILLEQEKQKKQREQAETN[ThP]QILAQV-NH2
SMILES: CC[C@H](C)[C@H](NC(C)=O)C(=O)N[C@H](C(=O)N[C@@H](CC(C)C)C(=O)N[C@@H](CO)C(=O)N[C@@H](CC(C)C)C(=O)N[C@@H](CC(=O)O)C(=O)N[C@@H](C(=O)N1CCC[C@H]1C(=O)N[C@H](C(=O)N[C@@H](CCCCN)C(=O)N[C@@H](CC(C)C)C(=O)N[C@@H](CCCCNC(=O)CC[C@H](NC(=O)CCCCCCCCCCCCCCCCC(=O)O)C(=O)O)C(=O)N[C@@H](CCCCN)C(=O)N[C@H](C(=O)N[C@@H](CC(C)C)C(=O)N[C@@H](CC(C)C)C(=O)N[C@@H](CCC(=O)O)C(=O)N[C@@H](CCC(N)=O)C(=O)N[C@@H](CCC(=O)O)C(=O)N[C@@H](CCCCN)C(=O)N[C@@H](CCC(N)=O)C(=O)N[C@@H](CCCCN)C(=O)N[C@@H](CCCCN)C(=O)N[C@@H](CCC(N)=O)C(=O)N[C@@H](CCCNC(=N)N)C(=O)N[C@@H](CCC(=O)O)C(=O)N[C@@H](CCC(N)=O)C(=O)N[C@@H](C)C(=O)N[C@@H](CCC(=O)O)C(=O)N[C@H](C(=O)N[C@@H](CC(N)=O)C(=O)NC1(CC(=O)N[C@@H](CCC(N)=O)C(=O)N[C@H](C(=O)N[C@@H](CC(C)C)C(=O)N[C@@H](C)C(=O)N[C@@H](CCC(N)=O)C(=O)N[C@H](C(N)=O)C(C)C)[C@@H](C)CC)CCOCC1)[C@@H](C)O)[C@@H](C)CC)[C@@H](C)CC)C(C)C)C(C)C
B3: SEQ ID NO 142 (peptide)
peptide: [NMeI]VLSLD[dV]PIKLK([γGlu-C18 diacid])KILLEQEKQKKQREQAETNEQILAQV-NH2
modifications: N-terminus assumed
SMILES: CC[C@H](C)[C@H](NC)C(=O)N[C@H](C(=O)N[C@@H](CC(C)C)C(=O)N[C@@H](CO)C(=O)N[C@@H](CC(C)C)C(=O)N[C@@H](CC(=O)O)C(=O)N[C@@H](C(=O)N1CCC[C@H]1C(=O)N[C@H](C(=O)N[C@@H](CCCCN)C(=O)N[C@@H](CC(C)C)C(=O)N[C@@H](CCCCNC(=O)CC[C@H](NC(=O)CCCCCCCCCCCCCCCCC(=O)O)C(=O)O)C(=O)N[C@@H](CCCCN)C(=O)N[C@H](C(=O)N[C@@H](CC(C)C)C(=O)N[C@@H](CC(C)C)C(=O)N[C@@H](CCC(=O)O)C(=O)N[C@@H](CCC(N)=O)C(=O)N[C@@H](CCC(=O)O)C(=O)N[C@@H](CCCCN)C(=O)N[C@@H](CCC(N)=O)C(=O)N[C@@H](CCCCN)C(=O)N[C@@H](CCCCN)C(=O)N[C@@H](CCC(N)=O)C(=O)N[C@@H](CCCNC(=N)N)C(=O)N[C@@H](CCC(=O)O)C(=O)N[C@@H](CCC(N)=O)C(=O)N[C@@H](C)C(=O)N[C@@H](CCC(=O)O)C(=O)N[C@H](C(=O)N[C@@H](CC(N)=O)C(=O)N[C@@H](CCC(=O)O)C(=O)N[C@@H](CCC(N)=O)C(=O)N[C@H](C(=O)N[C@@H](CC(C)C)C(=O)N[C@@H](C)C(=O)N[C@@H](CCC(N)=O)C(=O)N[C@H](C(N)=O)C(C)C)[C@@H](C)CC)[C@@H](C)O)[C@@H](C)CC)[C@@H](C)CC)C(C)C)C(C)C
B4: SEQ ID NO 23 (peptide)
peptide: [NMeI]VLSLD[dV]PIKLK([γGlu-C18 diacid])QILLKQERQKKQREQAEKN[Aib]QILEQV-NH2
modifications: N-terminus assumed
SMILES: CC[C@H](C)[C@H](NC)C(=O)N[C@H](C(=O)N[C@@H](CC(C)C)C(=O)N[C@@H](CO)C(=O)N[C@@H](CC(C)C)C(=O)N[C@@H](CC(=O)O)C(=O)N[C@@H](C(=O)N1CCC[C@H]1C(=O)N[C@H](C(=O)N[C@@H](CCCCN)C(=O)N[C@@H](CC(C)C)C(=O)N[C@@H](CCCCNC(=O)CC[C@H](NC(=O)CCCCCCCCCCCCCCCCC(=O)O)C(=O)O)C(=O)N[C@@H](CCC(N)=O)C(=O)N[C@H](C(=O)N[C@@H](CC(C)C)C(=O)N[C@@H](CC(C)C)C(=O)N[C@@H](CCCCN)C(=O)N[C@@H](CCC(N)=O)C(=O)N[C@@H](CCC(=O)O)C(=O)N[C@@H](CCCNC(=N)N)C(=O)N[C@@H](CCC(N)=O)C(=O)N[C@@H](CCCCN)C(=O)N[C@@H](CCCCN)C(=O)N[C@@H](CCC(N)=O)C(=O)N[C@@H](CCCNC(=N)N)C(=O)N[C@@H](CCC(=O)O)C(=O)N[C@@H](CCC(N)=O)C(=O)N[C@@H](C)C(=O)N[C@@H](CCC(=O)O)C(=O)N[C@@H](CCCCN)C(=O)N[C@@H](CC(N)=O)C(=O)NC(C)(C)C(=O)N[C@@H](CCC(N)=O)C(=O)N[C@H](C(=O)N[C@@H](CC(C)C)C(=O)N[C@@H](CCC(=O)O)C(=O)N[C@@H](CCC(N)=O)C(=O)N[C@H](C(N)=O)C(C)C)[C@@H](C)CC)[C@@H](C)CC)[C@@H](C)CC)C(C)C)C(C)C
B5: SEQ ID NO 141 (peptide)
peptide: [NMeI]VLSLD[dV]PIKLK([γGlu-C18 diacid])KILLEQEKQKKQREQAETN[Api]QILAQV-NH2
modifications: N-terminus assumed
SMILES: CC[C@H](C)[C@H](NC)C(=O)N[C@H](C(=O)N[C@@H](CC(C)C)C(=O)N[C@@H](CO)C(=O)N[C@@H](CC(C)C)C(=O)N[C@@H](CC(=O)O)C(=O)N[C@@H](C(=O)N1CCC[C@H]1C(=O)N[C@H](C(=O)N[C@@H](CCCCN)C(=O)N[C@@H](CC(C)C)C(=O)N[C@@H](CCCCNC(=O)CC[C@H](NC(=O)CCCCCCCCCCCCCCCCC(=O)O)C(=O)O)C(=O)N[C@@H](CCCCN)C(=O)N[C@H](C(=O)N[C@@H](CC(C)C)C(=O)N[C@@H](CC(C)C)C(=O)N[C@@H](CCC(=O)O)C(=O)N[C@@H](CCC(N)=O)C(=O)N[C@@H](CCC(=O)O)C(=O)N[C@@H](CCCCN)C(=O)N[C@@H](CCC(N)=O)C(=O)N[C@@H](CCCCN)C(=O)N[C@@H](CCCCN)C(=O)N[C@@H](CCC(N)=O)C(=O)N[C@@H](CCCNC(=N)N)C(=O)N[C@@H](CCC(=O)O)C(=O)N[C@@H](CCC(N)=O)C(=O)N[C@@H](C)C(=O)N[C@@H](CCC(=O)O)C(=O)N[C@H](C(=O)N[C@@H](CC(N)=O)C(=O)NC1(C(=O)N[C@@H](CCC(N)=O)C(=O)N[C@H](C(=O)N[C@@H](CC(C)C)C(=O)N[C@@H](C)C(=O)N[C@@H](CCC(N)=O)C(=O)N[C@H](C(N)=O)C(C)C)[C@@H](C)CC)CCNCC1)[C@@H](C)O)[C@@H](C)CC)[C@@H](C)CC)C(C)C)C(C)C
B6: SEQ ID NO 59 (peptide)
peptide: Ac-IVLSLD[dV]PIKLK([γGlu-C16 diacid])KILLEQEKQKKQREQAETN[Ac6c]QILAQV-NH2
SMILES: CC[C@H](C)[C@H](NC(C)=O)C(=O)N[C@H](C(=O)N[C@@H](CC(C)C)C(=O)N[C@@H](CO)C(=O)N[C@@H](CC(C)C)C(=O)N[C@@H](CC(=O)O)C(=O)N[C@@H](C(=O)N1CCC[C@H]1C(=O)N[C@H](C(=O)N[C@@H](CCCCN)C(=O)N[C@@H](CC(C)C)C(=O)N[C@@H](CCCCNC(=O)CC[C@H](NC(=O)CCCCCCCCCCCCCCC(=O)O)C(=O)O)C(=O)N[C@@H](CCCCN)C(=O)N[C@H](C(=O)N[C@@H](CC(C)C)C(=O)N[C@@H](CC(C)C)C(=O)N[C@@H](CCC(=O)O)C(=O)N[C@@H](CCC(N)=O)C(=O)N[C@@H](CCC(=O)O)C(=O)N[C@@H](CCCCN)C(=O)N[C@@H](CCC(N)=O)C(=O)N[C@@H](CCCCN)C(=O)N[C@@H](CCCCN)C(=O)N[C@@H](CCC(N)=O)C(=O)N[C@@H](CCCNC(=N)N)C(=O)N[C@@H](CCC(=O)O)C(=O)N[C@@H](CCC(N)=O)C(=O)N[C@@H](C)C(=O)N[C@@H](CCC(=O)O)C(=O)N[C@H](C(=O)N[C@@H](CC(N)=O)C(=O)NC1(C(=O)N[C@@H](CCC(N)=O)C(=O)N[C@H](C(=O)N[C@@H](CC(C)C)C(=O)N[C@@H](C)C(=O)N[C@@H](CCC(N)=O)C(=O)N[C@H](C(N)=O)C(C)C)[C@@H](C)CC)CCCCC1)[C@@H](C)O)[C@@H](C)CC)[C@@H](C)CC)C(C)C)C(C)C

The binders below were run against T1, CRF1R receptor (assay: cell-based or functional assay).

Emax (% I) [%] | EC50 [pM] | Binder
37 | – | B1
6 | > 250000 | Ac-IVLSLD[dV]PIKLK([γGlu-C16 diacid])KILLEQEKQKKQREQAETN[Thp′]QILAQV-NH2 [SEQ ID NO 58]
11 | > 250000 | B2
3 | – | B3
35 | – | B4
32 | – | B5
9 | – | B6

What follows are binders tested against human corticotropin-releasing factor 2a (CRF2a receptor) (human), Q13324 (assay: cell-based or functional assay).
Chain of human corticotropin-releasing factor 2a (CRF2a receptor) (human), Q13324 (Q13324 20-411): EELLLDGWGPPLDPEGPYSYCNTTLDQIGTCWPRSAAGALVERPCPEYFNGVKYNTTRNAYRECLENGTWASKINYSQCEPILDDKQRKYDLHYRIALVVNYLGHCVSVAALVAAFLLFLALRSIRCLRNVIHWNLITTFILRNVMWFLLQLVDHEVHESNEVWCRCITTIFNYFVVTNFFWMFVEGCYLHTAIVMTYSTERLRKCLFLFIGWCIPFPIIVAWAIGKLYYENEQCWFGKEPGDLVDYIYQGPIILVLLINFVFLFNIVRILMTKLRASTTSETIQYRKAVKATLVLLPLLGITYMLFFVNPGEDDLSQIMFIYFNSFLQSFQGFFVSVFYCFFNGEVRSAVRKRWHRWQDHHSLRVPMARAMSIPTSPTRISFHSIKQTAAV

EC50 [nM] (cAMP) | Binder
0.04 | B1
0.41 | Ac-IVLSLD[dV]PIKLK([γGlu-C16 diacid])KILLEQEKQKKQREQAETN[Thp′]QILAQV-NH2 [SEQ ID NO 58]
0.16 | B2
0.07 | B3
0.33 | B4
0.16 | B5
0.81 | B6
